This passage reports stoichiometry N results from PMC7992989.

For orientation: stoichiometry N means the number of molecules, sites or subunits per partner or assembly.

For assay [1], the target named is CP12 from Thalassiosira pseudonana, recombinant, after His tag removal with thrombin (Thalassiosira pseudonana). Put plainly: native MS; native ESI-MS, 5 µM CP12 without histidine tag, 200 mM ammonium acetate pH 8.0, source temperature 20 °C; dimer to monomers.
Assay [2] addresses recombinant histidine tagged CP12 from Thalassiosira pseudonana (Thalassiosira pseudonana). The experiment in a line: SEC-SAXS; 50 µL of His-tagged CP12 at 11 mg/mL on Agilent Bio-SEC-3 300 Å, 15 °C, 30 mM Tris, 50 mM NaCl, 2 mM EDTA, 1 mM TCEP, pH 7.5; mass from the forward scattering intensity. (Size exclusion chromatography separates by hydrodynamic size, large species first.)

Turning to “CP12 from Thalassiosira pseudonana, recombinant, after His tag removal with thrombin (natural protein)”, the stoichiometry N in assay [1] turned out to be 2.
Regarding “recombinant histidine tagged CP12 from Thalassiosira pseudonana (natural protein)”, the stoichiometry N in assay [2] worked out at 2.
